# Measurements reported in patent US20110243959A1, “MODULATING NEURONAL PLASTICITY AND TREATMENT OF NEURONAL LOSS BY MODULATIONG WNT7A OR WNT7B MODULATION” (priority 2008, published 2011).
# Tests used:
# Wnt signaling [1] = test: Local application into CA3 in mice housed under control conditions; type: in vivo
# Text: (§1) For enriched environment (EE) experiments, male mice were housed in groups of 3-4 littermates in large (rat) cages equipped with 3 running wheels per cage, toys and hiding spaces. Control mice were male littermates (3-4), which were housed individually in small standard cages without special equipment. Unless stated otherwise, EE was started at 1 month of age, and lasted 20 days.
# Mature recombinant sFRP-1 was obtained from R&D systems and dissolved in PBS/0.1% BSA (vehicle: PBS/0.1% BSA) to a working concentration of 50 μg/ml. Wnt agonist (Calbiochem) was dissolved in a small volume of DMSO and then further diluted with PBS to a final concentration of 10 mM (DMSO<1:1000). PBS/DMSO solution alone was used as vehicle for control injections. Antibodies were from the following sources: Bassoon, anti-mouse Alexa Fluor 546 and 647, anti-goat Alexa Fluor 546 and 633, donkey anti-goat Alexa Fluor 568 (Molecular Probes); NeuN anti-mouse (CHEMICON); anti-human Wnt7a/b antibody (R&D, P56706). […] Reagents, with their working concentrations were: TTX (Laxotan, 1 μM, stock in acetate buffer), Bicuculine (SIGMA, 20 μM in water), CGP (SIGMA, 0.4 μM in water), Picrotoxin (SIGMA, 20 μM in water).
# Injection canulas were implanted unilaterally (left hemisphere) above the CA3 b-a region of Isofluorane-anesthetized mice using stereotactical guidance. Canulas were fixed with dental cement. Implantation coordinates from Bregma (implantation 0.5 mm above injection site as the needle surpassed canula by 0.5 mm): ante-posterior −2.06 mm, lateral 2.5 mm, dorso-ventral −1.4 mm. Animals were allowed to recover for 3 days after surgery before drug treatments started.
# (§2) Animals were injected under Isofluorane anesthesia with 300 nl of either drug (treated) or vehicle (control) through a small needle guided through the implanted canulas every 3-4 days for 12-21 days (depending on experiment). Canula positions were confirmed in all analyzed sections to be above Ca3b-a without harming the mossy fiber projection or CA3 pyramidal cell dendrites.
# (§3) Microscope images were processed and analysed using Metamorph 6.1, Imaris 4.2 (Bitplane AG) and ImageJ softwares. We defined LMTs as mossy fiber terminal regions of >2.5 μm diameter in CA3a-c, which were arranged either en-passant, or as side structures connected to the mossy fiber axon or another LMT by an axonal process (satellite). For the quantification of LMT sizes in 3D (volumes) at least three confocal 3D stacks were acquired in CA3b for each preparation (three mice per condition), and analyzed using Imaris 4.2 software.
# Individual LMT volumes contained in these cubes were measured using the Surpass/ Isosurface function of the software. Non-saturating imaging conditions were chosen for all size analyses. An intensity threshold of 300 was chosen to selectively analyze LMTs (excluding axons and other smaller objects). All identified objects were verified by eye inspection. Generally, the settings for the analysis were identical for all samples of all ages, but in some cases we verified the settings through internal calibration using the diameters and signal intensities of axons. After these measurements, LMTs were grouped according to their volumes. The volumes of all LMTs in one group were added up, and expressed as percentage of the total volume of all LMTs measured per cube. For the quantification of LMT sizes in 2D, MIPs of 3D stacks were created in ImageJ, and LMT surfaces (areas in μm^2) were measured. For all samples, LMTs were inspected by eye in 3D to be identified as individual LMTs and not fused with other LMTs. LMT numbers were determined in CA3b as follows: the sum of all mGFP-positive LMTs within a region of interest (ROI; a MIP) was divided by the number of mGFP-labeled axons within that ROI, and by the length along CA3 included in the ROI. LMT numbers were then normalized to 100 μm axon length. Wnt7a/b staining intensities were measured on single confocal planes. […]
# Wnt signaling [2] = test: Application to organotypic slice cultures; type: cell-based; conditions: organotypic slice cultures (not shown)
# Text: Organotypic slice cultures were based on the Stoppini method (Stoppini et al., 1991), as described (De Paola et al., 2003).
# Immunocytochemistry preparations were imaged on an LSM510 confocal microscope (Zeiss) using a 40× (1.4) oil-immersion objective. Imaging of organotypic slice cultures was as described. Briefly, images were acquired with an LSM 510 (Zeiss), using a 40× (1.4) oil objective (Zeiss); image sizes were 2048×2048, and stepsizes were 0.4 μm. Where indicated, drugs were replaced every 3-4 days, together with fresh medium.
# as §3
# Wnt signaling [3] = test: sFRP-1 applied locally into hippocampal CA3 through a canule in mice housed under enriched environment (EE) conditions; type: in vivo; conditions: sFRP-1 present in CA3 during entire EE procedure, vs vehicle; no effect in dentate gyrus
# Text: as §1
# Mature recombinant sFRP-1 was obtained from R&D systems and dissolved in PBS/0.1% BSA (vehicle: PBS/0.1% BSA) to a working concentration of 50 μg/ml. Wnt agonist (Calbiochem) was dissolved in a small volume of DMSO and then further diluted with PBS to a final concentration of 10 mM (DMSO<1:1000). […]
# as §2
# (§4) Microscope images were processed and analysed using Metamorph 6.1, Imaris 4.2 (Bitplane AG) and ImageJ softwares. […] For the quantification of LMT sizes in 3D (volumes) at least three confocal 3D stacks were acquired in CA3b for each preparation (three mice per condition), and analyzed using Imaris 4.2 software. […]
# Wnt signaling [4] = test: sFRP-1 applied in Rab3a-/- mice housed under EE conditions; type: in vivo
# Text: Transgenic mice expressing membrane-targeted GFP in only a few neurons (Thy1-mGFPs, L21 and L15) were as described (De Paola et al., 2003). Transgenic males were crossed over more than ten generations with non-transgenic F1 offsprings from C57BI6×BalbC crosses, so that the genetic background of the mice was 50% each of C57BI6 and BalbC. Rab3a knockout mice (B6; 129S-Rab3a^tm1Sud/J) were obtained from the Jackson Laboratory and backcrossed into Thy1-mGFP (L21) mice.
# For enriched environment (EE) experiments, male mice were housed in groups of 3-4 littermates in large (rat) cages equipped with 3 running wheels per cage, toys and hiding spaces. […]
# as §2, §4
# [5] = local into CA3, control housing
Molecule,AZ densities at LMTs (Wnt signaling [1]; [5]),stratum lucidum AZ numbers (Wnt signaling [1]; [5]),stratum lucidum LMT numbers (Wnt signaling [1]; [5]),LMT satellite numbers (Wnt signaling [2]),contents of AZs per LMT (Wnt signaling [1]; [5]),"fractions of LMTs with satellites (Wnt signaling [1]; local into CA3, control housing (not shown))",effect of the enriched housing conditions on AZ numbers (Wnt signaling [3]),effect of the enriched housing conditions on satellite numbers (Wnt signaling [3]),effect of EE on LMT complexities (Wnt signaling [4]),effect of EE on LMT numbers (Wnt signaling [4])
"COc1cccc(-c2cnc(N)nc2NCc2ccc3c(c2)OCO3)c1 [Wnt agonist, 2-amino-4-[3,4-(methylenedioxy)benzyl-amino]-5-(3-methoxyphenyl)pyrimidine, reference compound]",increased,increased,increased,increases,,,,,,
"sFRP-1: Mature recombinant secreted frizzled-related protein 1 from R&D systems, used as local inhibitor of Wnt signaling (protein, UniProt Q8N474 32-314, looked up) Secreted frizzled-related …: SEYDYVSFQSDIGPYQSGRFYTKPPQCVDIPADLRLCHNVGYKKMVLPNLLEHETMAEVKQQASSWVPLLNKNCHAGTQVFLCSLFAPVCLDRPIYPCRWLCEAVRDSCEPVMQFFGFYWPEMLKCDKFPEGDVCIAMTPPNATEASKPQGTTVCPPCDNELKSEAIIEHLCASEFALRMKIKEVKKENGDKKIVPKKKKPLKLGPIKKKDLKKLVLYLKNGADCPCHQLDNLSHHFLIMGRKVKSQYLLTAIHKWDKKNKEFKNFMKKMKNHECPTFQSVFK",,reduction,,,reduction,reduction,effectively suppresses the effect of the enriched housing conditions,effectively suppresses the effect of the enriched housing conditions,effectively suppressed the effect of EE,effectively suppressed the effect of EE
